According to patent US20230355720A1, “PHARMACEUTICAL COMPOSITION FOR PREVENTING OR TREATING BONE DISEASES, COMPRISING TRIPLE AGONIST OR CONJUGATE THEREOF HAVING ACTIVITY WITH RESPECT TO ALL OF GLUCAGON, GLP-1 AND GLP RECEPTORS” (HANMI PHARM. CO., LTD., priority 2020, published 2023):
Bridge positions count the residues as written; N and C are the ends. Square brackets hold non-standard residues; d marks the D form. Ends that are not written are not given here. * marks the point of attachment. Acetyl(2-(4-imidazolyl)) = O=C(Cc1c[nH]cn1)*; Aib = CC(C)(N)C(=O)O

T1: human GIP receptor (human, UniProt P48546 22-466)
T1 sequence (looked up): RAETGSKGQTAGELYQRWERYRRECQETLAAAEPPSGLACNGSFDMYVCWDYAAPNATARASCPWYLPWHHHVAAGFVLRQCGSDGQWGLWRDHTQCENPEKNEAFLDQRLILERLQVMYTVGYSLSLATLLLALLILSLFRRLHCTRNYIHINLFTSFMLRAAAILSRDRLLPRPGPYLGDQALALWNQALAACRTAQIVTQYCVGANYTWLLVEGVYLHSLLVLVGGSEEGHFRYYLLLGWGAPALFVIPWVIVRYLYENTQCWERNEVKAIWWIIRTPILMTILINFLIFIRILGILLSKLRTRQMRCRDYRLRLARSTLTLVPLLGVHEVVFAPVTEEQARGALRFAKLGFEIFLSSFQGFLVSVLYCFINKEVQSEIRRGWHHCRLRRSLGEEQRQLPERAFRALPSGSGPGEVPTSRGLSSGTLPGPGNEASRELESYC


Assays:
Experiment in all cases: cell-based or functional assay
human GCG receptor = human GCG receptor (human, UniProt P47871 26-477)
human GCG receptor, sequence (P47871 26-477): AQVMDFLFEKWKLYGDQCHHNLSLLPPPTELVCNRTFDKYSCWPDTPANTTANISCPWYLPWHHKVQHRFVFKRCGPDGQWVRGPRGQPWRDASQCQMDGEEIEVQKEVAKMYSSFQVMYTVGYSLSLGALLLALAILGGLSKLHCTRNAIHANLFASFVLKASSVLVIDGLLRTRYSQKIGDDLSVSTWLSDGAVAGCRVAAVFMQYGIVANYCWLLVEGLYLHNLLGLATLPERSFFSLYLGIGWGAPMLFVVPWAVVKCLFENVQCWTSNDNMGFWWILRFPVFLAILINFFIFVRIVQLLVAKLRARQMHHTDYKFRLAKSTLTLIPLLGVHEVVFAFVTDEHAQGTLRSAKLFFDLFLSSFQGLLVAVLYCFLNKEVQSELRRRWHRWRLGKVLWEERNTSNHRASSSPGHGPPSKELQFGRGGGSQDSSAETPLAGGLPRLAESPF

human GLP-1 receptor = human GLP-1 receptor (human, UniProt P43220 24-463)
human GIP receptor = biological target: T1, human GIP receptor

Binder	In vitro activity (%) compared with native peptide, vs Glucagon (human GCG receptor) [%]	In vitro activity (%) compared with native peptide, vs GLP-1 (human GLP-1 receptor) [%]	In vitro activity (%) compared with native peptide, vs GIP (human GIP receptor) [%]
H[Aib]QGTFTSDVSSYLLGQQQKEFIAWLVKGC [triple agonist of SEQ ID NO: 4]	< 0.1	8.5	< 0.1
H[Aib]QGTFTSDYSKYLDECRQKEFVQWLLNGGPSSGAPPPSG (bridge 16-20) [triple agonist of SEQ ID NO: 37]	6.21	236	2.2
Y[Aib]QGTFTSDYSKYLDEKRAKEFVQWLLDHHCSSGQPPPS (bridge 16-20) [triple agonist of SEQ ID NO: 43]	88.4	12.6	3.7
Y[Aib]QGTFTSDYSKYLDEKRAKEFVQWLLDHHPSSGQPPPSC (bridge 16-20) [triple agonist of SEQ ID NO: 42]	206	33.9	7.8
[Acetyl(2-(4-imidazolyl))][Aib]QGTFTSDKSKYLDERAAQDFVQWLLDGGPSSGAPPPS (not fully specified) [triple agonist of SEQ ID NO: 62]	< 0.1	5.2	< 0.1
H[Aib]QGTFTSDYSKYLCEKRQKEFVQWLLNGGPSSGAPPPSG (bridge 16-20) [triple agonist of SEQ ID NO: 36]	0.39	37.4	0.2
H[Aib]QGTFTSDYSKYLDEKRQKEFVQWLLNTKC (bridge 16-20) [triple agonist of SEQ ID NO: 58]	2.6	39.1	0.2
[Acetyl(2-(4-imidazolyl))][Aib]QGTFTSDYSIAMDEKHCKDFVNWLLNTK (bridge 16-20; not fully specified) [triple agonist of SEQ ID NO: 60]	< 0.1	106	8.2
H[Aib]QGTFTSDKSKYLDECAAQDFVQWLLDGGPSSGAPPPS (not fully specified) [triple agonist of SEQ ID NO: 41]	< 0.1	34.3	< 0.1
H[Aib]QGTFTSDYSKYLDEKRQKEFVNWLLAQKC (bridge 16-20) [triple agonist of SEQ ID NO: 34]	0.92	19.1	0.6
H[Aib]QGTFTSDYSIAMDEIHQKDFVNWLLAQC (bridge 16-20; not fully specified) [triple agonist of SEQ ID NO: 55]	0.7	27.1	2.4
[Acetyl(2-(4-imidazolyl))][Aib]QGTFTSDKSSYLDERAAQDFVQWLLDGGPSSGAPPPSS (not fully specified) [triple agonist of SEQ ID NO: 38]	–	2.3	–
H[Aib]QGTFTSDKSKYLDERACQDFVQWLLDGGPSSGAPPPS (not fully specified) [triple agonist of SEQ ID NO: 40]	< 0.1	75.2	< 0.1
[Acetyl(2-(4-imidazolyl))][Aib]QGTFTSDYSICMDEIHQKDFVNWLLNTK (bridge 16-20) [triple agonist of SEQ ID NO: 49]	< 0.1	29.8	3.3
[Acetyl(2-(4-imidazolyl))][Aib]QGTFTSDYSICMDEKHQKDFVNWLLNTK (bridge 16-20; not fully specified) [triple agonist of SEQ ID NO: 59]	< 0.1	40.3	4
H[Aib]QGTFTSDVSSYLLGQQQKEFIAWLVKGGGPSSGAPPPSC [triple agonist of SEQ ID NO: 5]	< 0.1	42.1	< 0.1
[Acetyl(2-(4-imidazolyl))][Aib]QGTFTSDYSIAMDEIACKDFVNWLLNTK (bridge 16-20; not fully specified) [triple agonist of SEQ ID NO: 61]	< 0.1	59.8	2.8
H[Aib]EGTFTSDYSIAMDEIHQKDFVDWLLAEC (bridge 16-20) [triple agonist of SEQ ID NO: 54]	1.4	30.6	0.1
H[Aib]QGTFTSDVSSYLDGQAAKEFIAWLVKGC [triple agonist of SEQ ID NO: 1]	< 0.1	3.2	< 0.1
H[Aib]QGTFTSDVSSYLDGQAAKEFVAWLLKGC [triple agonist of SEQ ID NO: 6]	< 0.1	17	< 0.1
HGQGTFTSDCSKQLDGQAAQEFVAWLLAGGPSSGAPPPS [triple agonist of SEQ ID NO: 44]	< 0.1	1.3	< 0.1
HGQGTFTSDCSKYLDEQHAQEFVAWLLAGGPSSGAPPPS [triple agonist of SEQ ID NO: 46]	< 0.1	1.4	< 0.1
HGQGTFTSDCSKYLDGQRAQEFVAWLLAGGPSSGAPPPS [triple agonist of SEQ ID NO: 47]	< 0.1	2.4	< 0.1
HGQGTFTSDCSKYLDGQRAQDFVNWLLAGGPSSGAPPPS [triple agonist of SEQ ID NO: 48]	< 0.1	1.5	< 0.1
HGQGTFTSDCSKYMDGQAAQDFVAWLLAGGPSSGAPPPS [triple agonist of SEQ ID NO: 45]	< 0.1	6.6	< 0.1
H[Aib]QGTFTSDYSKYLDEKRAKEFVQWLLDHHPSSGQPPPSC (bridge 16-20) [triple agonist of SEQ ID NO: 50]	50.5	67.4	2.7
H[Aib]QGTFTSDYSKYLDGQHAQCFVAWLLAGGGPSSGAPPPS [triple agonist of SEQ ID NO: 39]	0.53	13.9	< 0.1
H[Aib]EGTFTSDYSIAMDEIHQKDFVNWLLAQC (bridge 16-20; not fully specified) [triple agonist of SEQ ID NO: 53]	8.4	161	1.3
[Acetyl(2-(4-imidazolyl))][Aib]QGTFTSDCSKYLDERAAQDFVQWLLDGGPSSGAPPPS (not fully specified) [triple agonist of SEQ ID NO: 63]	< 0.1	15.3	< 0.1
H[Aib]QGTFTSDYSIAMDEIHQKDFVNWLLNTC (bridge 16-20) [triple agonist of SEQ ID NO: 57]	< 0.1	11.7	0.3
